The source of these data is PMC11213015.

This assay concerns the target biotinylated-YE (UpxY of the PSE operon, Bacteroides fragilis) (Bacteroides fragilis NCTC 9343). Nature of the assay: BLI.

B1: ZA (UpxZ of the PSA operon, Bacteroides fragilis) (natural protein)
chain: MNQVQNLQHIARELLYLGMDGSPIYTDHFRQLNTEVFRLSEALFSMKGATSEEEAAICLSLLMGYNATIYNDGDKESKIQSILDRSFAVLDHLPASLLKCQLLTYCYGEVFEEDLAQEAHQIMDSWKNRALSEEELEVMETLQTMEDNRYPCSEVED
The molecule B1 had a Kd of 0.9 nM and a kon of 1.1e+06 M⁻¹ s⁻¹.

B2: ZE (UpxZ of the PSE operon, Bacteroides fragilis) (natural protein)
chain: MNTLMTQIHELQHVAHELLYLGADGSPIYTDSFRQLNTEVLQKSDALFALKGENPEEEARLCLALLMGYNATIYDYGDKESKKQVILDRSLLVLESLPSSLLKCQLLTYCYGEVFEEELAKEAHAIIDYWDNKTLSIDEQETVDMLKMIEENQYPNNYID
Take B2: the Kd worked out at 88 nM, the koff came out at 0.0096 s⁻¹ and the kon is 110000 M⁻¹ s⁻¹.
